Assay results reported in patent US20190144863.

Biological target: EZH2 (UniProt Q61188)
Assay: filter
Conditions: negative control RNA

EZH2, sequence (Q61188 whole entry): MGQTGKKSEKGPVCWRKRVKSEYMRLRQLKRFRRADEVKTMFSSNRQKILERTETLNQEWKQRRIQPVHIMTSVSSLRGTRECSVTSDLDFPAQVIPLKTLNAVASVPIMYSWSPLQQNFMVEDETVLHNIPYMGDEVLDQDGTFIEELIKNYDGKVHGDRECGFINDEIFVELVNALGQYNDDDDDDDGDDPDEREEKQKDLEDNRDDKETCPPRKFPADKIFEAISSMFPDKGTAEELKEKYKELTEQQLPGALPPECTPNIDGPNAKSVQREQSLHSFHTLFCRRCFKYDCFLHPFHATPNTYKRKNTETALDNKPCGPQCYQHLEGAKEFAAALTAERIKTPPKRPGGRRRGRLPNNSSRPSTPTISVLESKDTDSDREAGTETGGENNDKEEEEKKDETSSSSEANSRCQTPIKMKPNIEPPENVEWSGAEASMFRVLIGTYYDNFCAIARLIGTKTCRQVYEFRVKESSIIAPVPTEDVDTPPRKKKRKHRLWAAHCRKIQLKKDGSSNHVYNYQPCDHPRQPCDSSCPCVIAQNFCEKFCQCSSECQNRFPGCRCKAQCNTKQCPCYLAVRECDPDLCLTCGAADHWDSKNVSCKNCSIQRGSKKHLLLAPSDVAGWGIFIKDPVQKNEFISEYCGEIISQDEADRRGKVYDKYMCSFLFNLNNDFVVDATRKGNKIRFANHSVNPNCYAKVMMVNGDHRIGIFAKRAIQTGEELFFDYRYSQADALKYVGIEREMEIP

Substance: P4P6 RNA
- Kd: > 3 µM
